Test results reported in patent US20090149339A1 (published 2009).
Ends that are not written are not given here. * marks the point of attachment. Biotin = O=C1N[C@H]2[C@H](CS[C@H]2CCCCC(=O)*)N1

B1: CD49E (alpha-4) C-terminal PL peptide AA11L, biotinylated (peptide)
peptide: Biotin-PYGTAMEKAQLKPPATSDA
B2: BLR-1 C-terminal PL peptide AA45L, biotinylated (peptide)
peptide: Biotin-PSWRRSSLSESENATSLTTF

Target: T1, GST-41.8 kD PDZ domain fusion protein (hypothetical 41.8 kD protein AA4-85; PDZ domain 1 of 1) (UniProt P08515 1-218 = GST)
T1 construct: also called hypoth
Test: A and G assays

T1 sequence (P08515 1-218, tags or fused parts left off): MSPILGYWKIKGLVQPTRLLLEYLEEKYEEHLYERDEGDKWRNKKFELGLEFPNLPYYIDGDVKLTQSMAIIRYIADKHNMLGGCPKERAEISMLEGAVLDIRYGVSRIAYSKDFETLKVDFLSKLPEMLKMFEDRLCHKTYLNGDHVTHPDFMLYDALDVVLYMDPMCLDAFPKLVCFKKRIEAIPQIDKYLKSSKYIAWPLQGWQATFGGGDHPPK

| Binder | binding result |
| --- | --- |
| B1 | binds |

Target: GST-PTN-4 PDZ domain fusion protein (protein-tyrosine phosphatase meg1 AA774-862; PDZ domain 1 of 1) (UniProt P08515 1-218 = GST)
Test: A/G assays

Sequence of GST-PTN-4 PDZ domain fusion protein (protein-tyrosine phosphatase meg1 AA774-862; PDZ domain 1 of 1) (P08515 1-218, tags or fused parts left off): as above

| Binder | binding result |
| --- | --- |
| B1 | no binding |
| B2 | no binding |

Target: T2, GST-TAX2 PDZ domain fusion protein (human tax interaction protein 2 AA54-140; PDZ domain 1 of 1) (human, UniProt P08515 1-218 = GST)
T2 construct: also called TX 2
Test: A/G assays

T2 sequence (P08515 1-218, tags or fused parts left off): as above

| Binder | binding result |
| --- | --- |
| B1 | no binding |
| B2 | no binding |

Target: GST-prIL16 PDZ domain fusion protein (putative interleukin 16 precursor AA170-383; PDZ domains 1-2 of 2) (UniProt P08515 1-218 = GST)
Test: A/G assays

Sequence of GST-prIL16 PDZ domain fusion protein (putative interleukin 16 precursor AA170-383; PDZ domains 1-2 of 2) (P08515 1-218, tags or fused parts left off): as above

| Binder | binding result |
| --- | --- |
| B1 | no binding |
| B2 | no binding |

Target: T3, GST-TAX33 PDZ domain fusion protein (tax interaction protein 33 AA73-162; PDZ domain 1 of 1) (UniProt P08515 1-218 = GST)
T3 construct: also called TX33
Test: A/G assays

T3 sequence (P08515 1-218, tags or fused parts left off): as above

| Binder | binding result |
| --- | --- |
| B1 | no binding |
| B2 | no binding |

Target: GST-MINT3 PDZ domain fusion protein (human MINT3 AA11-52; PDZ domain 1 of 1) (human, UniProt P08515 1-218 = GST)
Test: A/G assays

| Binder | binding result |
| --- | --- |
| B1 | no binding |
| B2 | no binding |

Target: GST-NOS1 PDZ domain fusion protein (human neuronal nitric oxide synthase; PDZ domain 1 of 1) (human, UniProt P08515 1-218 = GST)
Test: A/G assays

Sequence of GST-NOS1 PDZ domain fusion protein (human neuronal nitric oxide synthase; PDZ domain 1 of 1) (P08515 1-218, tags or fused parts left off): as above

| Binder | binding result |
| --- | --- |
| B1 | no binding |
| B2 | no binding |

Target: T4, GST-TAX40 PDZ domain fusion protein (human tax interaction protein 40 AA35-137; PDZ domain 1 of 1) (human, UniProt P08515 1-218 = GST)
T4 construct: also called TX 40
Test: A/G assays

T4 sequence (P08515 1-218, tags or fused parts left off): as above

| Binder | binding result |
| --- | --- |
| B1 | no binding |
| B2 | no binding |

Target: T5, GST-MPP2 PDZ domain fusion protein (maguk p55 subfamily member 2 (DLG2) AA185-273; PDZ domain 1 of 1) (UniProt P08515 1-218 = GST)
T5 construct: also called MMP2
Test: A/G assays

| Binder | binding result |
| --- | --- |
| B1 | no binding |
| B2 | no binding |

Target: T6, GST-KIAA0559 PDZ domain fusion protein (KIAA0559 AA766-870; PDZ1 of 1) (UniProt P08515 1-218 = GST)
T6 construct: also called K559
Test: A/G assays

T6 sequence (P08515 1-218, tags or fused parts left off): as above

| Binder | binding result |
| --- | --- |
| B1 | no binding |
| B2 | no binding |

Target: GST-PSD95 PDZ domain fusion protein (human post-synaptic density protein 95 AA387-724; PDZ domains 1-3 of 3) (human, UniProt P08515 1-218 = GST)
Test: A/G assays

Sequence of GST-PSD95 PDZ domain fusion protein (human post-synaptic density protein 95 AA387-724; PDZ domains 1-3 of 3) (P08515 1-218, tags or fused parts left off): as above

| Binder | binding result |
| --- | --- |
| B1 | no binding |
| B2 | no binding |

Target: T7, GST-TAX43 PDZ domain fusion protein (human tax interaction protein 43 AA15-85; PDZ domain 1 of 1) (human, UniProt P08515 1-218 = GST)
T7 construct: also called TX 43
Test: A/G assays

T7 sequence (P08515 1-218, tags or fused parts left off): as above

| Binder | binding result |
| --- | --- |
| B1 | no binding |
| B2 | no binding |

Target: T1, GST-41.8 kD PDZ domain fusion protein …
Test: A/G assays

| Binder | binding result |
| --- | --- |
| B2 | no binding |

Target: T8, GST-SYN1a PDZ domain fusion protein (alpha1-syntrophin AA96-189; PDZ domain 1 of 1) (UniProt P08515 1-218 = GST)
T8 construct: also called SYN 1 alpha; SYNTR 1 alpha
Test: A/G assays

T8 sequence (P08515 1-218, tags or fused parts left off): as above

| Binder | binding result |
| --- | --- |
| B1 | no binding |
| B2 | no binding |

Target: T9, GST-NeDLG PDZ domain fusion protein (presynaptic protein sao102, neuroendocrine-dlg; PDZ domains 1-2 of 3) (UniProt P08515 1-218 = GST)
T9 construct: also called NeDLG1
Test: A/G assays

| Binder | binding result |
| --- | --- |
| B1 | no binding |
| B2 | no binding |

Target: T10, GST-RGS12 PDZ domain fusion protein (human regulator of G-protein signalling 12 AA35-103; PDZ domain 1 of 1) (human, UniProt P08515 1-218 = GST)
T10 construct: also called RSG12
Test: A/G assays

T10 sequence (P08515 1-218, tags or fused parts left off): as above

| Binder | binding result |
| --- | --- |
| B1 | no binding |
| B2 | no binding |

Target: T11, GST-KIAA0303 PDZ domain fusion protein (KIAA0303 AA652-742; PDZ domain 1 of 1) (UniProt P08515 1-218 = GST)
T11 construct: also called K303
Test: A/G assays

T11 sequence (P08515 1-218, tags or fused parts left off): as above

| Binder | binding result |
| --- | --- |
| B1 | no binding |
| B2 | no binding |

Target: T12, GST-CASK PDZ domain fusion protein (CASK AA495-584; PDZ domain 1 of 1) (mouse, UniProt P08515 1-218 = GST)
T12 construct: also called mCASK
Test: A/G assays

T12 sequence (P08515 1-218, tags or fused parts left off): as above

| Binder | binding result |
| --- | --- |
| B1 | no binding |
| B2 | no binding |

Target: GST-MPP1 PDZ domain fusion protein (55 Kd erythrocyte membrane protein AA101-186; PDZ domain 1 of 1) (UniProt P08515 1-218 = GST)
Test: A/G assays

Sequence of GST-MPP1 PDZ domain fusion protein (55 Kd erythrocyte membrane protein AA101-186; PDZ domain 1 of 1) (P08515 1-218, tags or fused parts left off): as above

| Binder | binding result |
| --- | --- |
| B1 | no binding |
| B2 | no binding |

Target: T13, GST-KIAA0316 PDZ domain fusion protein (KIAA0316 AA197-284; PDZ domain 1 of 1) (UniProt P08515 1-218 = GST)
T13 construct: also called K316
Test: A/G assays

T13 sequence (P08515 1-218, tags or fused parts left off): as above

| Binder | binding result |
| --- | --- |
| B1 | no binding |
| B2 | no binding |

Target: T14, GST-CBP PDZ domain fusion protein (Cytohesin binding protein HE AA85-175; PDZ domain 1 of 1) (UniProt P08515 1-218 = GST)
T14 construct: also called Prot
Test: A/G assays

| Binder | binding result |
| --- | --- |
| B1 | no binding |
| B2 | no binding |

Target: GST-DVL1 PDZ domain fusion protein (human dishevelled segment polarity protein homolog AA248-340); PDZ domain … (human, UniProt P08515 1-218 = GST)
Test: A/G assays

Sequence of GST-DVL1 PDZ domain fusion protein (human dishevelled segment polarity protein homolog AA248-340); PDZ domain … (P08515 1-218, tags or fused parts left off): as above

| Binder | binding result |
| --- | --- |
| B1 | no binding |
| B2 | no binding |

Target: GST-TIAM1 PDZ domain fusion protein (T-lymphoma invasion and metastasis inducing protein 1 AA1001-1088); PDZ 1 … (UniProt P08515 1-218 = GST)
Test: A/G assays

Sequence of GST-TIAM1 PDZ domain fusion protein (T-lymphoma invasion and metastasis inducing protein 1 AA1001-1088); PDZ 1 … (P08515 1-218, tags or fused parts left off): as above

| Binder | binding result |
| --- | --- |
| B1 | no binding |
| B2 | no binding |

Target: GST-LIMK2 PDZ domain fusion protein (human LIM domain kinase 2 AA185-275; PDZ domain 1 of 1) (human, UniProt P08515 1-218 = GST)
Test: A/G assays

Sequence of GST-LIMK2 PDZ domain fusion protein (human LIM domain kinase 2 AA185-275; PDZ domain 1 of 1) (P08515 1-218, tags or fused parts left off): as above

| Binder | binding result |
| --- | --- |
| B1 | no binding |
| B2 | no binding |

Target: GST-AF6 PDZ domain fusion protein (af-6 protein AA985-1077; PDZ domain 1 of 1) (UniProt P08515 1-218 = GST)
Test: A/G assays

Sequence of GST-AF6 PDZ domain fusion protein (af-6 protein AA985-1077; PDZ domain 1 of 1) (P08515 1-218, tags or fused parts left off): as above

| Binder | binding result |
| --- | --- |
| B1 | no binding |
| B2 | no binding |

Target: GST-LIM PDZ domain fusion protein (Human LIM protein AA29-112; PDZ domain 1 of 1) (human, UniProt P08515 1-218 = GST)
Test: A/G assays

Sequence of GST-LIM PDZ domain fusion protein (Human LIM protein AA29-112; PDZ domain 1 of 1) (P08515 1-218, tags or fused parts left off): as above

| Binder | binding result |
| --- | --- |
| B1 | no binding |
| B2 | no binding |
